Legend:
Assay in all cases: IP/MS, LZTR1 R810W-FLAG, U87
SLC4A2 = molecular target: T1, SLC4A2 (human, UniProt P04920 1-1241, limits assumed)
T1 sequence (looked up): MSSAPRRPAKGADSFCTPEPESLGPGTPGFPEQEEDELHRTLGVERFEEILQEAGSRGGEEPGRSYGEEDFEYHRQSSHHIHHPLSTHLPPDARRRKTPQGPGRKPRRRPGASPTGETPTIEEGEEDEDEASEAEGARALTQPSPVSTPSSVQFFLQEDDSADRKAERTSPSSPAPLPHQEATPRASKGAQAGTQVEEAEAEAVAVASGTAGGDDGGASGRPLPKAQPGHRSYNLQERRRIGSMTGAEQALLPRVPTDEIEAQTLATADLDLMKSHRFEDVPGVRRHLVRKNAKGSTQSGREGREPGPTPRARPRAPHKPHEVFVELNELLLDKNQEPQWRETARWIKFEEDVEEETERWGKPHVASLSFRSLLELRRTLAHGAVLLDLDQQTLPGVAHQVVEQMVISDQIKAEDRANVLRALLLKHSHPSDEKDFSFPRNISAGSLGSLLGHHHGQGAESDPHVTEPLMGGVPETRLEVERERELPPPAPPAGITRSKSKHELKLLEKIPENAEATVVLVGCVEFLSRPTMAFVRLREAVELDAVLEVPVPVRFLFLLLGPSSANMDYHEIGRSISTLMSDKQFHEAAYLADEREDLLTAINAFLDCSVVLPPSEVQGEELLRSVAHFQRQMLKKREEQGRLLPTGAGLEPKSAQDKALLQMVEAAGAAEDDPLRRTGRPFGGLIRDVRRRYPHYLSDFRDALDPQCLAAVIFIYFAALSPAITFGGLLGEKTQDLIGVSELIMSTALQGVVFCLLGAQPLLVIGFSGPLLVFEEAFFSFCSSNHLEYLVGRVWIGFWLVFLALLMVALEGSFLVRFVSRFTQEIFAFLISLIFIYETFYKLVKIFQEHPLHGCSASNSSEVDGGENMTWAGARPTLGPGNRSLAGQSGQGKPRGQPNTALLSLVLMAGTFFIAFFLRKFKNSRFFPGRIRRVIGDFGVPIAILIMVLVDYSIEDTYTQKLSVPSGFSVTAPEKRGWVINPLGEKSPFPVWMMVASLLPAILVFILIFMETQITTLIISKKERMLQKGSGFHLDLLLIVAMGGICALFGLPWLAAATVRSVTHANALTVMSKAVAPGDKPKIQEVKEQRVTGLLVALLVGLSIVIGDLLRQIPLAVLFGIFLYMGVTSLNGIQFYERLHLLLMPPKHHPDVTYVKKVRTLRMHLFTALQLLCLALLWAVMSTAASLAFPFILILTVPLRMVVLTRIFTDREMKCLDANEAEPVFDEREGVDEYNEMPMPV
Procedure, shortened: (§1)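 Extracted peptides in 3% acetonitrile/0.1% formic acid ran on a 50 cm C18 column into an Orbitrap Fusion, with MaxQuant identification and spectral counting.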

POLR1A = POLR1A (human, UniProt O95602 1-1720)
Procedure, shortened: as §1

ARFGEF1 = ARFGEF1 (human, UniProt Q9Y6D6 1-1849)
Procedure, shortened: as §1

Measured: binding result

Chain of ARFGEF1 (Q9Y6D6 whole entry): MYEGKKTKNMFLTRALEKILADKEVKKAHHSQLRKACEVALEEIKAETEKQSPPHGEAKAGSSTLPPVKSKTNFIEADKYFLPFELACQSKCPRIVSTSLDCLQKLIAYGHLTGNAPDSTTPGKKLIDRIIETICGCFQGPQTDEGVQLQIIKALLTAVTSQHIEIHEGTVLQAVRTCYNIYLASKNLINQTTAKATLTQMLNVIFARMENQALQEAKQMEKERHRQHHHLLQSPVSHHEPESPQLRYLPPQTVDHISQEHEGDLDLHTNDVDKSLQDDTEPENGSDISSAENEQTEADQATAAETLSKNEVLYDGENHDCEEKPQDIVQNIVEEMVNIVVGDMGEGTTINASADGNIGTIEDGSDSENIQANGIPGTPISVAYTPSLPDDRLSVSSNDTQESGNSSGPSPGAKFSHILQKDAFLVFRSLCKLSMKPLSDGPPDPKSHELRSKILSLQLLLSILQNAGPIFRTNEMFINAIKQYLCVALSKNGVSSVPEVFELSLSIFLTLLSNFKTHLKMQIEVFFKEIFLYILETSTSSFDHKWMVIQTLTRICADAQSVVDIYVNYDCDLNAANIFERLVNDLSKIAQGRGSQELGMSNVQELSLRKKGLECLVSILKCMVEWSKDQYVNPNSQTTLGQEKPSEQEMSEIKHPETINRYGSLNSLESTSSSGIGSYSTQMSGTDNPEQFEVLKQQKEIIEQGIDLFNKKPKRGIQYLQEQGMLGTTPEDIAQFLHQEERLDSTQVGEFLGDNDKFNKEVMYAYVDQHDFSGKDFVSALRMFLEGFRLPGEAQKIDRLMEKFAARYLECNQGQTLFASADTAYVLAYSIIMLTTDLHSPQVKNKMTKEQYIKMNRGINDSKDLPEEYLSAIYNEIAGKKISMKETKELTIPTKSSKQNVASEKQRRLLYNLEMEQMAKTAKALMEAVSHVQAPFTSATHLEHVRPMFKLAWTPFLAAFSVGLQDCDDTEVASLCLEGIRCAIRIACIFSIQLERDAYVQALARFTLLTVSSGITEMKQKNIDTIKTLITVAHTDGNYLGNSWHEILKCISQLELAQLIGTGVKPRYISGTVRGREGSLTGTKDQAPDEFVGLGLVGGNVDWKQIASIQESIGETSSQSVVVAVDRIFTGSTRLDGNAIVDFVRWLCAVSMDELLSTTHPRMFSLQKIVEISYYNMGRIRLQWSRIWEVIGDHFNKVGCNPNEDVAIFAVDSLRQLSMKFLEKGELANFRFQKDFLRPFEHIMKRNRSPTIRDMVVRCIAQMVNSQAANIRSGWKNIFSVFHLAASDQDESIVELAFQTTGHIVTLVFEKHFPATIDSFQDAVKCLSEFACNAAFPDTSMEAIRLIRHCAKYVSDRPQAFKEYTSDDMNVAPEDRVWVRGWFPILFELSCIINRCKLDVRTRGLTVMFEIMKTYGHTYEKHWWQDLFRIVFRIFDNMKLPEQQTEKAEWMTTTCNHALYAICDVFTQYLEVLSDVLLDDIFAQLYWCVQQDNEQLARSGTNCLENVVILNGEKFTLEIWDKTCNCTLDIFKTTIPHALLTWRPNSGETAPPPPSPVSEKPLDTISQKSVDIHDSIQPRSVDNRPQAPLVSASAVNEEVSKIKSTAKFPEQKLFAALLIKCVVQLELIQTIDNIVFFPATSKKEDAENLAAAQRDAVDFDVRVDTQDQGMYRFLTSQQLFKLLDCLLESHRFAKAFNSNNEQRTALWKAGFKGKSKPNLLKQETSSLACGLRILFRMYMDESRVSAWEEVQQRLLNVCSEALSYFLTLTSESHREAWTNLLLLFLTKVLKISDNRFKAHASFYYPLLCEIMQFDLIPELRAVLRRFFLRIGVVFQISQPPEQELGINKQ
Chain of POLR1A (O95602 whole entry): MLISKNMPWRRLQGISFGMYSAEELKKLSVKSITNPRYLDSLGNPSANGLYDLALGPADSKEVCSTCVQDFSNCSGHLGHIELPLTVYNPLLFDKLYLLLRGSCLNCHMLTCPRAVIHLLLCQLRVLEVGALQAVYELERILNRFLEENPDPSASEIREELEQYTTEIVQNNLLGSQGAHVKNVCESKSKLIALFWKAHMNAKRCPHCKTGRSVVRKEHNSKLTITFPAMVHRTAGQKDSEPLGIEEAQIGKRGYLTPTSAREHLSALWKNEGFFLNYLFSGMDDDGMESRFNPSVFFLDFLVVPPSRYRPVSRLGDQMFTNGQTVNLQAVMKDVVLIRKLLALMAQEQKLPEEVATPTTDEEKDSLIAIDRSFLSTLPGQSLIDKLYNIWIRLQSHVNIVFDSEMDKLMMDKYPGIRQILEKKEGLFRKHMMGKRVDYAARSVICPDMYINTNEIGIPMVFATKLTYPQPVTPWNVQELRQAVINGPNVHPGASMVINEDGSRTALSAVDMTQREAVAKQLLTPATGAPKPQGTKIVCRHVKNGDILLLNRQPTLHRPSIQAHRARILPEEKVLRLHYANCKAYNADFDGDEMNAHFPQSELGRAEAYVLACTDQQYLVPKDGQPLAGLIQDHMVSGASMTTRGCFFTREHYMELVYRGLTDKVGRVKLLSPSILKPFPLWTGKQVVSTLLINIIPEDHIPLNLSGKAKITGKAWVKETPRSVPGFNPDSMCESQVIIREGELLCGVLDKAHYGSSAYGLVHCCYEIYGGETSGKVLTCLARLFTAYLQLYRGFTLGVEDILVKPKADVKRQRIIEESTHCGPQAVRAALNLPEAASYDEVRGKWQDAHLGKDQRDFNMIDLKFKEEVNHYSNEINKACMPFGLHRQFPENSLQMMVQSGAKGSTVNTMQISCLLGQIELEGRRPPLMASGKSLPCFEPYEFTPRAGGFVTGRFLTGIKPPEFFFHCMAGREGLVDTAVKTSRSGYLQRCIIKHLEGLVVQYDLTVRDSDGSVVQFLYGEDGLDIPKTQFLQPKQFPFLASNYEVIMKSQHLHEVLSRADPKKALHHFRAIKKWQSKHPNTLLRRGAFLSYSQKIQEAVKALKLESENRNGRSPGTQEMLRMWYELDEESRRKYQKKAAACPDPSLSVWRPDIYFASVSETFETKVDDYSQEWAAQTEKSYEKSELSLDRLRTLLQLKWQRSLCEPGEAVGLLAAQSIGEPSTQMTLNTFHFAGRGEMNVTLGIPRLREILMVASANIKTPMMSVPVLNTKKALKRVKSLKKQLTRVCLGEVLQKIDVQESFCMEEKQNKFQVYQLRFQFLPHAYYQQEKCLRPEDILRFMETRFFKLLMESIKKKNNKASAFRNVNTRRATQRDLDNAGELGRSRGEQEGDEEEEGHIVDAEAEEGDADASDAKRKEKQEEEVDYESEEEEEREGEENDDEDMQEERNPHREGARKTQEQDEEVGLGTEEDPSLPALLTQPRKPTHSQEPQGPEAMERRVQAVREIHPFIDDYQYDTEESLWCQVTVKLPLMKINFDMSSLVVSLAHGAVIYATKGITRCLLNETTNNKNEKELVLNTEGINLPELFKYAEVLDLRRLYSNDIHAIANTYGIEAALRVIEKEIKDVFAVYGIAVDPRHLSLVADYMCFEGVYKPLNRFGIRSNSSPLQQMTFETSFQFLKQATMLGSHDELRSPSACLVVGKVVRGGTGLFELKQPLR

B1: LZTR1 R810W-FLAG (other, human, UniProt Q8N653 1-840, looked up)
chain: MAGPGSTGGQIGAAALAGGARSKVAPSVDFDHSCSDSVEYLTLNFGPFETVHRWRRLPPCDEFVGARRSKHTVVAYKDAIYVFGGDNGKTMLNDLLRFDVKDCSWCRAFTTGTPPAPRYHHSAVVYGSSMFVFGGYTGDIYSNSNLKNKNDLFEYKFATGQWTEWKIEGRLPVARSAHGATVYSDKLWIFAGYDGNARLNDMWTIGLQDRELTCWEEVAQSGEIPPSCCNFPVAVCRDKMFVFSGQSGAKITNNLFQFEFKDKTWTRIPTEHLLRGSPPPPQRRYGHTMVAFDRHLYVFGGAADNTLPNELHCYDVDFQTWEVVQPSSDSEVGGAEVPERACASEEVPTLTYEERVGFKKSRDVFGLDFGTTSAKQPTQPASELPSGRLFHAAAVISDAMYIFGGTVDNNIRSGEMYRFQFSCYPKCTLHEDYGRLWESRQFCDVEFVLGEKEECVQGHVAIVTARSRWLRRKITQARERLAQKLEQEAAPVPREAPGVAAGGARPPLLHVAIREAEARPFEVLMQFLYTDKIKYPRKGHVEDVLLIMDVYKLALSFQLCRLEQLCRQYIEASVDLQNVLVVCESAARLQLSQLKEHCLNFVVKESHFNQVIMMKEFERLSSPLIVEIVRRKQQPPPRTPLDQPVDIGTSLIQDMKAYLEGAGAEFCDITLLLDGHPRPAHKAILAARSSYFEAMFRSFMPEDGQVNISIGEMVPSRQAFESMLRYIYYGEVNMPPEDSLYLFAAPYYYGFYNNRLQAYCKQNLEMNVTVQNVLQILEAADKTQALDMKRHCLHIIVHQFTKVSKLPTLWSLSQQLLLDIIDSLASHISDKQCAELGADI
notes: Stably expressed in U87 cells by lentivirus; also called LZTR1-FLAG-R810W; LZTR1 RW; not shown: FLAG tag
binds: all assays above

Reference: patent publication US20250262210A1 (TRUSTEES OF COLUMBIA UNIVERSITY IN THE CITY OF NEW YORK, published 2025)
